Reference: patent US20180155451A1 (published 2018)

What follows are binders tested against T1, FcγRIIIa extracellular domain with C-terminal His tag (human, UniProt P08637 17-208) (assay: SPR relative binding; GpH7-A5/GpH7-B3/GpL16-k0 = 100).
T1 construct: extracellular domain; also called FcgRIIIa; 3a; not shown: His tag at the C terminus
Excerpt: First, variants of interest were expressed and prepared according to the method described in Reference Example 1, using GpH7-A5 as an H chain; and GpL16-k0 as the L chain; and as the other H chain, GpH7-HA5 (SEQ ID NO: 19), GpH7-HA6 (SEQ ID NO: 20), and GpH7-HA11 (SEQ ID NO: 21) resulting from the introduction of L234Y, G236W, and S298A, respectively, into GpH7-B12 introduced with the alteration P329R. Furthermore, antibodies of interest were expressed and prepared according to the method described in Reference Example 1, using as an H chain, GpH7-A48 (SEQ ID NO: 16) resulting from the introduction of P329R into GpH7-A5; and GpL16-k0 as the L chain; and as the other H chain, GpH7-B3-01-15Y (SEQ ID NO: 22), GpH7-B3-03-20W (SEQ ID NO: 23), and GpH7-B3-15-02A (SEQ ID NO: 24) resulting from the introduction of L234Y, G236W, and S298A, respectively, into GpH7-B3. The antibodies thus obtained were named GpH7-A5/GpH7-HA5/GpL16-k0 (SEQ ID NOs: 3, 19, and 5, respectively), GpH7-A5/GpH7-HA6/GpL16-k0 (SEQ ID NOs: 3, 20, and 5, respectively), GpH7-A5/GpH7-HA11/GpL16-k0 (SEQ ID NOs: 3, 21, and 5, respectively), GpH7-A48/GpH7-B3-01-15Y/GpL16-k0 (SEQ ID NOs: 16, 22, and 5, respectively), GpH7-A48/GpH7-B3-03-20W/GpL16-k0 (SEQ ID NOs: 16, 23, and 5, respectively), and GpH7-A48/GpH7-B3-15-02A/GpL16-k0 (SEQ ID NO: 16, 24, and 5, respectively). The variants were compared to each other for the FcγRIIIa-binding activity according to the method described in Reference Example 2.
Analysis of interaction between objective antibody and the FcγR was carried out using Biacore T100 (GE Healthcare). HBS-EP+ (GE Healthcare) was used as the running buffer, and the measurement temperature was set to 25° C. Chips produced by immobilizing the antigen peptide by the amine coupling method to a Series S Sencor Chip CM5 (GE Healthcare), or alternatively, chips produced by allowing preliminarily biotinylated antigen peptides to interact with and immobilize onto a Series S Sensor Chip SA (certified) (GE Healthcare) were used. Antibodies of interest were captured onto an antigen peptide-immobilized chip, and allowed to interact to each FcγR diluted with running buffer. To regenerate and repeatedly use the chip, the antibodies captured on the chip were washed off by reacting 10 mM glycine-HCl, pH 1.5.

T1 sequence (P08637 17-208): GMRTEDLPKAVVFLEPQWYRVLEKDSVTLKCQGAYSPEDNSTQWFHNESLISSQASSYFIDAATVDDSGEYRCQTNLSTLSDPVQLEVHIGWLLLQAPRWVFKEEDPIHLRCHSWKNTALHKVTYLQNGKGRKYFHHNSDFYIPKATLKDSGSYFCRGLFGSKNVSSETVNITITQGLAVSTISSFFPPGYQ

Row | Binder | FcγRIIIa BINDING ACTIVITY
1 | GpH7-A5/GpH7-HA5/GpL16-k0 (antibody, human IgG1, kappa, H2 L234Y and P329R) heavy 1: not shown heavy 2: QVQLVQSGAEVKKPGASVTVSCKASGYTFTDYEMHWIRQPPGEGLEWIGAIDPKTGDTAYSESFQDRVTLTADKSTSTAYMELSSLTSEDTAVYYCTRFYSYTYWGQGTLVTVSSASTKGPSVFPLAPSSKSTSGGTAALGCLVKDYFPEPVTVSWNSGALTSGVHTFPAVLQSSGLYSLSSVVTVPSSSLGTQTYICNVNHKPSNTKVDKKVEPKSCDKTHTCPPCPAPEYLGGPSVFLFPPKPKDTLMISRTPEVTCVVVDVSHEDPEVKFNWYVDGVEVHNAKTKPREEQYNSTYRVVSVLTVLHQDWLNGKEYKCKVSNKALRAPIEKTISKAKGQPREPQVYTLPPSRDELTKNQVSLTCLVKGFYPSDIAVEWESNGQPENNYKTTPPVLDSDGSFFLYSKLTVDKSRWQQGNVFSCSVMHEALHNHYTQESLSLSP light: DIVMTQSPLSLPVTPGEPASISCQASESLVHSNRNTYLHWYLQKPGQSPQLLIYKVSNRFSGVPDRFSGSGSGTDFTLKISRVEAEDVGVYYCSQNTHVPPTFGQGTKVEIERTVAAPSVFIFPPSDEQLKSGTASVVCLLNNFYPREAKVQWKVDNALQSGNSQESVTEQDSKDSTYSLSSTLTLSKADYEKHKVYACEVTHQGLSSPVTKSFNRGEC | 60 % of control
2 | GpH7-A5/GpH7-HA11/GpL16-k0 (antibody, human IgG1, kappa, H2 S298A and P329R) heavy 1: not shown heavy 2: QVQLVQSGAEVKKPGASVTVSCKASGYTFTDYEMHWIRQPPGEGLEWIGAIDPKTGDTAYSESFQDRVTLTADKSTSTAYMELSSLTSEDTAVYYCTRFYSYTYWGQGTLVTVSSASTKGPSVFPLAPSSKSTSGGTAALGCLVKDYFPEPVTVSWNSGALTSGVHTFPAVLQSSGLYSLSSVVTVPSSSLGTQTYICNVNHKPSNTKVDKKVEPKSCDKTHTCPPCPAPELLGGPSVFLFPPKPKDTLMISRTPEVTCVVVDVSHEDPEVKFNWYVDGVEVHNAKTKPREEQYNATYRVVSVLTVLHQDWLNGKEYKCKVSNKALRAPIEKTISKAKGQPREPQVYTLPPSRDELTKNQVSLTCLVKGFYPSDIAVEWESNGQPENNYKTTPPVLDSDGSFFLYSKLTVDKSRWQQGNVFSCSVMHEALHNHYTQESLSLSP light: DIVMTQSPLSLPVTPGEPASISCQASESLVHSNRNTYLHWYLQKPGQSPQLLIYKVSNRFSGVPDRFSGSGSGTDFTLKISRVEAEDVGVYYCSQNTHVPPTFGQGTKVEIERTVAAPSVFIFPPSDEQLKSGTASVVCLLNNFYPREAKVQWKVDNALQSGNSQESVTEQDSKDSTYSLSSTLTLSKADYEKHKVYACEVTHQGLSSPVTKSFNRGEC | 84 % of control
3 | GpH7-A5/GpH7-HA6/GpL16-k0 (antibody, human IgG1, kappa, H2 G236W and P329R) heavy 1: not shown heavy 2: QVQLVQSGAEVKKPGASVTVSCKASGYTFTDYEMHWIRQPPGEGLEWIGAIDPKTGDTAYSESFQDRVTLTADKSTSTAYMELSSLTSEDTAVYYCTRFYSYTYWGQGTLVTVSSASTKGPSVFPLAPSSKSTSGGTAALGCLVKDYFPEPVTVSWNSGALTSGVHTFPAVLQSSGLYSLSSVVTVPSSSLGTQTYICNVNHKPSNTKVDKKVEPKSCDKTHTCPPCPAPELLWGPSVFLFPPKPKDTLMISRTPEVTCVVVDVSHEDPEVKFNWYVDGVEVHNAKTKPREEQYNSTYRVVSVLTVLHQDWLNGKEYKCKVSNKALRAPIEKTISKAKGQPREPQVYTLPPSRDELTKNQVSLTCLVKGFYPSDIAVEWESNGQPENNYKTTPPVLDSDGSFFLYSKLTVDKSRWQQGNVFSCSVMHEALHNHYTQESLSLSP light: DIVMTQSPLSLPVTPGEPASISCQASESLVHSNRNTYLHWYLQKPGQSPQLLIYKVSNRFSGVPDRFSGSGSGTDFTLKISRVEAEDVGVYYCSQNTHVPPTFGQGTKVEIERTVAAPSVFIFPPSDEQLKSGTASVVCLLNNFYPREAKVQWKVDNALQSGNSQESVTEQDSKDSTYSLSSTLTLSKADYEKHKVYACEVTHQGLSSPVTKSFNRGEC | 56 % of control

Other lines, results leading:

Row | FcγRIIIa BINDING ACTIVITY | Binder
4 | 13 % of control | GpH7-A48/GpH7-B3-03-20W/GpL16-k0 (antibody, human IgG1, kappa, H1 P329R; H2 G236W) heavy 1: QVQLVQSGAEVKKPGASVTVSCKASGYTFTDYEMHWIRQPPGEGLEWIGAIDPKTGDTAYSESFQDRVTLTADKSTSTAYMELSSLTSEDTAVYYCTRFYSYTYWGQGTLVTVSSASTKGPSVFPLAPSSKSTSGGTAALGCLVKDYFPEPVTVSWNSGALTSGVHTFPAVLQSSGLYSLSSVVTVPSSSLGTQTYICNVNHKPSNTKVDKKVEPKSCDKTHTCPPCPAPELLGGPSVFLFPPKPKDTLMISRTPEVTCVVVDVSHEDPEVKFNWYVDGVEVHNAKTKPREEQYNSTYRVVSVLTVLHQDWLNGKEYKCKVSNKALRAPIEKTISKAKGQPREPQVYTLPPSRKELTKNQVSLTCLVKGFYPSDIAVEWESNGQPENNYKTTPPVLDSDGSFFLYSKLTVDKSRWQQGNVFSCSVMHEALHNRYTQKSLSLSP heavy 2: not shown light: DIVMTQSPLSLPVTPGEPASISCQASESLVHSNRNTYLHWYLQKPGQSPQLLIYKVSNRFSGVPDRFSGSGSGTDFTLKISRVEAEDVGVYYCSQNTHVPPTFGQGTKVEIERTVAAPSVFIFPPSDEQLKSGTASVVCLLNNFYPREAKVQWKVDNALQSGNSQESVTEQDSKDSTYSLSSTLTLSKADYEKHKVYACEVTHQGLSSPVTKSFNRGEC
5 | 11 % of control | GpH7-A48/GpH7-B3-01-15Y/GpL16-k0 (antibody, human IgG1, kappa, H1 P329R; H2 L234Y) heavy 1: QVQLVQSGAEVKKPGASVTVSCKASGYTFTDYEMHWIRQPPGEGLEWIGAIDPKTGDTAYSESFQDRVTLTADKSTSTAYMELSSLTSEDTAVYYCTRFYSYTYWGQGTLVTVSSASTKGPSVFPLAPSSKSTSGGTAALGCLVKDYFPEPVTVSWNSGALTSGVHTFPAVLQSSGLYSLSSVVTVPSSSLGTQTYICNVNHKPSNTKVDKKVEPKSCDKTHTCPPCPAPELLGGPSVFLFPPKPKDTLMISRTPEVTCVVVDVSHEDPEVKFNWYVDGVEVHNAKTKPREEQYNSTYRVVSVLTVLHQDWLNGKEYKCKVSNKALRAPIEKTISKAKGQPREPQVYTLPPSRKELTKNQVSLTCLVKGFYPSDIAVEWESNGQPENNYKTTPPVLDSDGSFFLYSKLTVDKSRWQQGNVFSCSVMHEALHNRYTQKSLSLSP heavy 2: not shown light: DIVMTQSPLSLPVTPGEPASISCQASESLVHSNRNTYLHWYLQKPGQSPQLLIYKVSNRFSGVPDRFSGSGSGTDFTLKISRVEAEDVGVYYCSQNTHVPPTFGQGTKVEIERTVAAPSVFIFPPSDEQLKSGTASVVCLLNNFYPREAKVQWKVDNALQSGNSQESVTEQDSKDSTYSLSSTLTLSKADYEKHKVYACEVTHQGLSSPVTKSFNRGEC
6 | 47 % of control | GpH7-A48/GpH7-B3-15-02A/GpL16-k0 (antibody, human IgG1, kappa, H1 P329R; H2 S298A) heavy 1: QVQLVQSGAEVKKPGASVTVSCKASGYTFTDYEMHWIRQPPGEGLEWIGAIDPKTGDTAYSESFQDRVTLTADKSTSTAYMELSSLTSEDTAVYYCTRFYSYTYWGQGTLVTVSSASTKGPSVFPLAPSSKSTSGGTAALGCLVKDYFPEPVTVSWNSGALTSGVHTFPAVLQSSGLYSLSSVVTVPSSSLGTQTYICNVNHKPSNTKVDKKVEPKSCDKTHTCPPCPAPELLGGPSVFLFPPKPKDTLMISRTPEVTCVVVDVSHEDPEVKFNWYVDGVEVHNAKTKPREEQYNSTYRVVSVLTVLHQDWLNGKEYKCKVSNKALRAPIEKTISKAKGQPREPQVYTLPPSRKELTKNQVSLTCLVKGFYPSDIAVEWESNGQPENNYKTTPPVLDSDGSFFLYSKLTVDKSRWQQGNVFSCSVMHEALHNRYTQKSLSLSP heavy 2: not shown light: DIVMTQSPLSLPVTPGEPASISCQASESLVHSNRNTYLHWYLQKPGQSPQLLIYKVSNRFSGVPDRFSGSGSGTDFTLKISRVEAEDVGVYYCSQNTHVPPTFGQGTKVEIERTVAAPSVFIFPPSDEQLKSGTASVVCLLNNFYPREAKVQWKVDNALQSGNSQESVTEQDSKDSTYSLSSTLTLSKADYEKHKVYACEVTHQGLSSPVTKSFNRGEC
